In US9260505B2, “Methods for screening for binding partners of G-protein coupled receptors” (Heptares Therapeutics Limited, priority 2007, dated 2016):
“And” between values parts separate entries of the source, which are not always exact repeats. Equal entries are not always repeated.

What was measured:
[1] = Thermostability of detergent-solubilised βAR34-424 and mutants ([3H]-DHA binding after heating 30 min)
Method: Binding assays were performed using [^3H]-dihydroalprenolol (DHA) as radioligand as described under “Methods”. Samples were heated for 30 minutes at different temperatures before the assay. […] Data points are from duplicates of one single experiment.
Single point binding assays contained 20 mM Tris pH 8, 0.4 M NaCl, 1 mM EDTA, 0.1% DDM (or corresponding detergent) with 50 nM [^3H]-DHA and 20-100 μg membrane protein in a final volume of 120 μl; equilibration was for 1 h at 4° C. Thermostability was assessed by incubating the binding assay mix, with or without [^3H]-DHA at the specified temperature for 30 minutes; reactions were placed on ice and [^3H]-DHA added as necessary and equilibrated for a further hour. Receptor-bound and free radioligand were separated by gel filtration as described previously[18]. […] Radioactivity was counted on a Beckman LS6000 liquid scintillation counter and data were analyzed by nonlinear regression using Prism software (GraphPad).

[2] = Thermostability of solubilised adenosine A2a receptor and mutants; type: physicochemical; details: for Tm + agonist / Tm + antagonist / Tm − agonist / Tm − antagonist: 1% DDM, no glycerol; for Tm + agonist: agonist-occupied; for Tm + antagonist: antagonist-occupied; for Tm − agonist / Tm − antagonist: apo-state; for Tm: ZM241385 bound
Method: • 1. 315 site-directed mutants made between residues 2-316 of A2aR. • 2. All of these mutants have been assayed for thermostability using an assay measuring agonist and antagonist binding after the heating step (Ligand(−) format as described in FIG. 12). • a. […] Mutations have been combined to generate mutants in a putative antagonist conformation. Wildtype A2aR has a Tm of 31° C. with ZM241385 bound.

β1AR36-M23 = target: T1, β1AR36-M23 (Meleagris gallopavo, UniProt P07700, A282L/C116L/C358A/DEL244-271/DEL277-278/F327A/F338M/M90V/R68S/Y227A); assay: biochemical; type: binding, turkey; details: for kd: 10° C., footnote 1 averaged from two b1AR surfaces, footnote 2 preliminary results
T1 construct: beta-36 construct (amino acid residues 34-367 of the turkey beta receptor containing the following changes); His6 (C); made in house; host or cells: insect cells, baculovirus (stated for the beta-36 construct in the crystallisation text)
T1 sequence (P07700 other isoform, or with tags, fused parts or gaps with the stated changes): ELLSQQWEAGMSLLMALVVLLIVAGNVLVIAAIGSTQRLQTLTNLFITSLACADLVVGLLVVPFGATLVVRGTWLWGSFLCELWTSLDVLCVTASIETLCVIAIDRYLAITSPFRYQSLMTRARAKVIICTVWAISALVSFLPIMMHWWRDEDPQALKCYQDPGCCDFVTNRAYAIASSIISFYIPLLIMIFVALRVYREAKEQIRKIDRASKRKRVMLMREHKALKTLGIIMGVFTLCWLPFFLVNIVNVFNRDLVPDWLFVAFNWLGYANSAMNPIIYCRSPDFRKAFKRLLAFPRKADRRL
Method: Binding studies were performed at 10° C. using a Biacore S51 optical biosensor equipped with a streptavidin-coated CM5 chip and equilibrated with running buffer (20 mM trisHCl, 150 mM NaCl, 1 mM EDTA, 1% DMSO, 0.1% decyl maltoside, pH 7.8).
Flow through of the compound allowed the on rate to be determined. Subsequent washing enabled determination of the off rate. These parameters could then be used to determine a kinetic affinity measurement (Kd).

[3] = Thermostability of neurotensin receptor and mutants (3H-neurotensin binding); type: physicochemical; details: neurotensin bound
Method: • 1. 340 site-directed mutants have been made between residues 61-400 of NTR. • 2. Initially, all of these mutants were assayed for thermostability using an assay measuring ^3H-neurotensin (agonist) binding after the heating step. […] Mutants tested for thermostability by heating in the absence of the agonist were re-tested using a slightly different assay where the mutants were heated in the presence of ^3H-neurotensin (Ligand(+) format in FIG. 12). […] All of these also have increased thermostability. • 5. Preferred combinations are • a. Nag7m F358A+A86L+I260A+F342A Tm 51° C. (neurotensin bound) • b. Nag7n F358A+H103A+I260A+F342A Tm 51° C. (neurotensin bound)

[4] = apo-state heated 30 min, E. coli expressed, DDM-solubilised, mean ± S.E. from duplicates

m6-5: βAR34-424 mutant R68S, A234L, A282L, A334L
Tm [1, 4]: 41.9 ± 0.5 °C

m7-7: βAR34-424 mutant M90V, Y227A, F338M
Tm [1, 4]: 45.2 ± 2.0 °C

m23: βAR34-424 mutant R68S, M90V, Y227A, A282L, F327A, F338M
Tm ([1]; Ni-NTA partially purified, in DDM): 52 °C
Tm ([1]; Ni-NTA partially purified, in DM): 48 °C
Tm ([1]; Ni-NTA partially purified, in LDAO): 23 °C
Tm ([1]; Ni-NTA partially purified, in NG): 25 °C
Tm ([1]; Ni-NTA partially purified, in OG): 17 °C
Tm with antagonist bound ([1]; [3H]-DHA bound during heating): 55 °C
increase in Tm with bound antagonist ([1]; antagonist bound versus without antagonist): 2 °C
Tm [1, 4]: 52.8 °C and 52.8 ± 1.4 °C

m7-1: βAR34-424 mutant M90V, A282L, F338M
Tm [1, 4]: 43.0 ± 0.8 °C

m6-10: βAR34-424 mutant R68S, Y227A, A282L, A334L
Tm [1, 4]: 47.4 ± 1.1 °C

wt: wild-type human adenosine A2a receptor [reference compound]
Tm, Agonist-binding ([2]; 0.003% LDAO): 28 °C
Tm, Antagonist-binding ([2]; 0.003% LDAO): 32 °C
Tm, Agonist-binding ([2]; 0.006% FC12): 37 °C
Tm, Antagonist-binding ([2]; 0.006% FC12): 43 °C
Tm, Agonist-binding ([2]; 0.01% DDM): 27 °C
Tm, Antagonist-binding ([2]; 0.01% DDM): 25 °C
Tm, Agonist-binding ([2]; 0.1% DM): 23 °C
Tm, Antagonist-binding ([2]; 0.1% DM): 10 °C
Tm, Agonist-binding ([2]; 0.3% NM): 22 °C
Tm, Antagonist-binding ([2]; 0.3% NM): <4 °C
Tm, Agonist-binding ([2]; 0.6% OG): <9 °C
Tm + agonist [2]: 29 °C
Tm + antagonist [2]: 32 °C
Tm − agonist [2]: 21 °C
Tm − antagonist [2]: 31 °C
Tm [2]: 31 °C

m6-4: βAR34-424 mutant R68S, Y227A, A234L, A282L
Tm [1, 4]: 41.6 ± 0.1 °C

m10-4: βAR34-424 mutant R68S, M90V, V230A, A334L
Tm [1, 4]: 46.9 ± 1.0 °C

C=CCc1ccccc1OC[C@@H](O)CNC(C)C [alprenolol]
Kd (β1AR36-M23): 0.044 ± 0.001 µM
kd (β1AR36-M23): (6.3 ± 0.1) × 10^−3 s^−1

OCc1cc(C(O)CNCCCCCCOCCCCc2ccccc2)ccc1O (stereo not drawn) [Salmeterol]
Kd (β1AR36-M23): 2.5 ± 0.3 µM
kd (β1AR36-M23): (9.5 ± 0.4) × 10^−2 s^−1
binding strength compared with alprenolol or propranolol (β1AR36-M23; in words): bound the receptor much more weakly
dissociation rate compared with the other compounds (β1AR36-M23; in words): dissociated much faster

m20: βAR34-424 mutant R68S, M90V, F327A, A334L
Tm [1, 4]: 48.4 ± 0.7 °C

m6-9: βAR34-424 mutant R68S, Y227A, A234L, A282L, A334L
Tm [1, 4]: 43.7 ± 0.4 °C

Wildtype NTR: wild-type neurotensin receptor [reference compound]
Tm [3]: 35 °C

B1: Rant17: A2aR mutant A54L + K122A + L235A (protein, UniProt P29274 1-412, looked up, variant A54L K122A L235A)
Adenosine receptor A2a: MPIMGSSVYITVELAIAVLAILGNVLVCWAVWLNSNLQNVTNYFVVSLAAADILVGVLAIPFAITISTGFCAACHGCLFIACFVLVLTQSSIFSLLAIAIDRYIAIRIPLRYNGLVTGTRAAGIIAICWVLSFAIGLTPMLGWNNCGQPKEGKNHSQGCGEGQVACLFEDVVPMNYMVYFNFFACVLVPLLLMLGVYLRIFLAARRQLKQMESQPLPGERARSTLQKEVHAAKSAAIIVGLFALCWLPLHIINCFTFFCPDCSHAPLWLMYLAIVLSHTNSVVNPFIYAYRIREFRQTFRKIIRSHVLRQQEPFKAAGTSARVLAAHGSDGEQVSLRLNGHPPGVWANGSAPHPERRPNGYALGLVSGGSAQESQGNTGLPDVELLSHELKGVCPEPPGLDDPLAQDGAGVS
Tm [2]: Tm 48 °C (ZM241385 bound)

B2: Rant19: A2aR mutant A54L, T88A, V239A + A204L (protein, UniProt P29274 1-412, looked up, variant A54L T88A V239A A204L)
Adenosine receptor A2a: MPIMGSSVYITVELAIAVLAILGNVLVCWAVWLNSNLQNVTNYFVVSLAAADILVGVLAIPFAITISTGFCAACHGCLFIACFVLVLAQSSIFSLLAIAIDRYIAIRIPLRYNGLVTGTRAKGIIAICWVLSFAIGLTPMLGWNNCGQPKEGKNHSQGCGEGQVACLFEDVVPMNYMVYFNFFACVLVPLLLMLGVYLRIFLALRRQLKQMESQPLPGERARSTLQKEVHAAKSLAIIAGLFALCWLPLHIINCFTFFCPDCSHAPLWLMYLAIVLSHTNSVVNPFIYAYRIREFRQTFRKIIRSHVLRQQEPFKAAGTSARVLAAHGSDGEQVSLRLNGHPPGVWANGSAPHPERRPNGYALGLVSGGSAQESQGNTGLPDVELLSHELKGVCPEPPGLDDPLAQDGAGVS
Tm [2]: Tm 47 °C (ZM241385 bound)

B3: Rant21: A2aR mutant A54L, T88A, V239A + K122A (protein, UniProt P29274 1-412, looked up, variant A54L T88A V239A K122A)
Adenosine receptor A2a: MPIMGSSVYITVELAIAVLAILGNVLVCWAVWLNSNLQNVTNYFVVSLAAADILVGVLAIPFAITISTGFCAACHGCLFIACFVLVLAQSSIFSLLAIAIDRYIAIRIPLRYNGLVTGTRAAGIIAICWVLSFAIGLTPMLGWNNCGQPKEGKNHSQGCGEGQVACLFEDVVPMNYMVYFNFFACVLVPLLLMLGVYLRIFLAARRQLKQMESQPLPGERARSTLQKEVHAAKSLAIIAGLFALCWLPLHIINCFTFFCPDCSHAPLWLMYLAIVLSHTNSVVNPFIYAYRIREFRQTFRKIIRSHVLRQQEPFKAAGTSARVLAAHGSDGEQVSLRLNGHPPGVWANGSAPHPERRPNGYALGLVSGGSAQESQGNTGLPDVELLSHELKGVCPEPPGLDDPLAQDGAGVS
Tm, Antagonist-binding ([2]; 0.003% LDAO): 42 °C
Tm, Antagonist-binding ([2]; 0.006% FC12): 49 °C
Tm, Antagonist-binding ([2]; 0.01% DDM): 39 °C
Tm, Antagonist-binding ([2]; 0.1% DM): 28 °C
Tm, Antagonist-binding ([2]; 0.3% NG): 22 °C
Tm, Antagonist-binding ([2]; 0.3% NM): 25 °C
Tm, Antagonist-binding ([2]; 0.6% OG): 23 °C
Tm + antagonist [2]: 49 °C
Tm − antagonist [2]: 41 °C
Tm [2]: Tm 49 °C (ZM241385 bound)

B4: Rant 5: A2aR mutant A54L/T88A/V239A (protein, UniProt P29274 1-412, looked up, variant A54L T88A V239A)
Adenosine receptor A2a: MPIMGSSVYITVELAIAVLAILGNVLVCWAVWLNSNLQNVTNYFVVSLAAADILVGVLAIPFAITISTGFCAACHGCLFIACFVLVLAQSSIFSLLAIAIDRYIAIRIPLRYNGLVTGTRAKGIIAICWVLSFAIGLTPMLGWNNCGQPKEGKNHSQGCGEGQVACLFEDVVPMNYMVYFNFFACVLVPLLLMLGVYLRIFLAARRQLKQMESQPLPGERARSTLQKEVHAAKSLAIIAGLFALCWLPLHIINCFTFFCPDCSHAPLWLMYLAIVLSHTNSVVNPFIYAYRIREFRQTFRKIIRSHVLRQQEPFKAAGTSARVLAAHGSDGEQVSLRLNGHPPGVWANGSAPHPERRPNGYALGLVSGGSAQESQGNTGLPDVELLSHELKGVCPEPPGLDDPLAQDGAGVS
Tm + antagonist [2]: 46 °C
Tm − antagonist [2]: 42 °C

B5: Rag 1: A2aR mutant A184L/R199A/L272A (protein, UniProt P29274 1-412, looked up, variant A184L R199A L272A)
Adenosine receptor A2a: MPIMGSSVYITVELAIAVLAILGNVLVCWAVWLNSNLQNVTNYFVVSLAAADIAVGVLAIPFAITISTGFCAACHGCLFIACFVLVLTQSSIFSLLAIAIDRYIAIRIPLRYNGLVTGTRAKGIIAICWVLSFAIGLTPMLGWNNCGQPKEGKNHSQGCGEGQVACLFEDVVPMNYMVYFNFFLCVLVPLLLMLGVYLAIFLAARRQLKQMESQPLPGERARSTLQKEVHAAKSLAIIVGLFALCWLPLHIINCFTFFCPDCSHAPLWLMYAAIVLSHTNSVVNPFIYAYRIREFRQTFRKIIRSHVLRQQEPFKAAGTSARVLAAHGSDGEQVSLRLNGHPPGVWANGSAPHPERRPNGYALGLVSGGSAQESQGNTGLPDVELLSHELKGVCPEPPGLDDPLAQDGAGVS
Tm + agonist [2]: 34 °C
Tm − agonist [2]: 26 °C

B6: Nag7m: rat neurotensin receptor mutant F358A+A86L+I260A+F342A (protein, UniProt P20789 1-424, looked up, variant F358A A86L I260A F342A)
Neurotensin receptor type 1: MHLNSSVPQGTPGEPDAQPFSGPQSEMEATFLALSLSNGSGNTSESDTAGPNSDLDVNTDIYSKVLVTAIYLALFVVGTVGNSVTLFTLARKKSLQSLQSTVHYHLGSLALSDLLILLLAMPVELYNFIWVHHPWAFGDAGCRGYYFLRDACTYATALNVASLSVERYLAICHPFKAKTLMSRSRTKKFISAIWLASALLAIPMLFTMGLQNRSGDGTHPGGLVCTPIVDTATVKVVIQVNTFMSFLFPMLVISILNTVAANKLTVMVHQAAEQGRVCTVGTHNGLEHSTFNMTIEPGRVQALRHGVLVLRAVVIAFVVCWLPYHVRRLMFCYISDEQWTTALFDFYHYFYMLTNALAYVSSAINPILYNLVSANFRQVFLSTLACLCPGWRHRRKKRPTFSRKPNSMSSNHAFSTSATRETLY
Tm [3]: 51 °C

B7: Nag7n: rat neurotensin receptor mutant F358A+H103A+I260A+F342A (protein, UniProt P20789 1-424, looked up, variant F358A H103A I260A F342A)
Neurotensin receptor type 1: MHLNSSVPQGTPGEPDAQPFSGPQSEMEATFLALSLSNGSGNTSESDTAGPNSDLDVNTDIYSKVLVTAIYLALFVVGTVGNSVTAFTLARKKSLQSLQSTVAYHLGSLALSDLLILLLAMPVELYNFIWVHHPWAFGDAGCRGYYFLRDACTYATALNVASLSVERYLAICHPFKAKTLMSRSRTKKFISAIWLASALLAIPMLFTMGLQNRSGDGTHPGGLVCTPIVDTATVKVVIQVNTFMSFLFPMLVISILNTVAANKLTVMVHQAAEQGRVCTVGTHNGLEHSTFNMTIEPGRVQALRHGVLVLRAVVIAFVVCWLPYHVRRLMFCYISDEQWTTALFDFYHYFYMLTNALAYVSSAINPILYNLVSANFRQVFLSTLACLCPGWRHRRKKRPTFSRKPNSMSSNHAFSTSATRETLY
Tm [3]: 51 °C
